Measurements reported in patent US6344546 (RHONE POULENC RORER, dated 2002).

What was measured:
[1] = target: T1, human bek (bacterially expressed kinase) fibroblast growth factor receptor (human, UniProt P21802 22-821); assay: saturation binding of [125I]aFGF to bek8 cells with excess unlabelled aFGF or bFGF
T1 construct: whole, on cells; Three-Ig-domain form, 135 kDa glycoprotein on transfected NIH 3T3 cells; Clone Nbek8 was used with aFGF and bFGF, clone NBek13 with kFGF; also called bek8; NBek8
T1 sequence (P21802 22-821): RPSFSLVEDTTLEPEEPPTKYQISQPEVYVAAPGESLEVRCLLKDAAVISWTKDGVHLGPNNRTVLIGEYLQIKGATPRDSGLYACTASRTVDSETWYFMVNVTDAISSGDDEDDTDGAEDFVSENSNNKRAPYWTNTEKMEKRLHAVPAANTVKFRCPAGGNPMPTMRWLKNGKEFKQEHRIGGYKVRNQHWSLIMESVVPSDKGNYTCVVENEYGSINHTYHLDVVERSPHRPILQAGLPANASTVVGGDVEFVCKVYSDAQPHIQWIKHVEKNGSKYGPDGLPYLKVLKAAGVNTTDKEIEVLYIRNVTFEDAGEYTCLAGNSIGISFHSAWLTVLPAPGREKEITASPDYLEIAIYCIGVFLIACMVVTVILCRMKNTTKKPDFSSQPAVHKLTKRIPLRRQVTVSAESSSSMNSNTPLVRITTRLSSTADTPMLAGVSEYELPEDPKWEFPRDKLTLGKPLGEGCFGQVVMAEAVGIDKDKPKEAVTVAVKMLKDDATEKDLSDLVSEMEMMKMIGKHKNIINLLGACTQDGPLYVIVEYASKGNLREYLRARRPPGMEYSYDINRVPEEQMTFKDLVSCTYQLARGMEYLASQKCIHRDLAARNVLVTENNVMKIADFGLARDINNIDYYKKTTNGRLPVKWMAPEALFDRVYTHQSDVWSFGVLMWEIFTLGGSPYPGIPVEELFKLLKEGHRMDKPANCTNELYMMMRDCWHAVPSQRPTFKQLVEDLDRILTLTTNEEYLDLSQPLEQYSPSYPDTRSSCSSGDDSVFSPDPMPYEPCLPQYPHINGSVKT
Procedure: (§1) The background counts in the presence of a 100 fold molar excess of either ligand was always less than 10% of the total cpm at each point. The scale on the Scatchard analysis is the same in each panel.
(§2) Fibronectin-coated 24 well dishes containing 1×10^5 cells/well were placed on ice, and the wells were rinsed twice with cold binding buffer (DMEM, 1 mg/ml BSA, 5 U/ml heparin, 50 mM Hepes, pH 7.4). […] Nonspecific binding was obtained using the same serial dilutions but in the presence of 100 fold molar excess of non-radioactive aFGF. After incubation, the cells were placed on ice and rinsed twice with ice cold binding buffer minus heparin and then solubilized in 0.3N NaOH 37° C., 15 minutes.
(§3) Equilibrium Binding Analysis of flg and bek Radioloabled with Acidic, Basic and k-fibroblast Growth Factors Acidic and basic FGF were radioiodinated and purified on heparin-Sepharose as described above. The dissociation constants of bek and flg for aFGF and bFGF were established by saturation binding analysis of the overexpressing cell lines with the iodinated ligands. Binding of both aFGF and bFGF to bek and flg was specific and saturable (FIG. 6A, inserts). […] Scatchard, (*Ann. N.Y. Acad.

[2] = target: T1, human bek (bacterially expressed …); assay: Scatchard analysis of saturation binding, additional experiments
Procedure: as §2
(§4) Equilibrium Binding Analysis of flg and bek Radioloabled with Acidic, Basic and k-fibroblast Growth Factors Acidic and basic FGF were radioiodinated and purified on heparin-Sepharose as described above. The dissociation constants of bek and flg for aFGF and bFGF were established by saturation binding analysis of the overexpressing cell lines with the iodinated ligands. Binding of both aFGF and bFGF to bek and flg was specific and saturable (FIG. 6A, inserts).

[3] = target: T2, human flg (fms-like gene) fibroblast growth factor receptor (human, UniProt P11362 22-822); assay: saturation binding of [125I]aFGF to flg26 cells with excess unlabelled aFGF or bFGF
T2 construct: whole, on cells; Three-Ig-domain form, 150 kDa glycoprotein on transfected NIH 3T3 cells; also called flg26; NFlg26
T2 sequence (P11362 22-822): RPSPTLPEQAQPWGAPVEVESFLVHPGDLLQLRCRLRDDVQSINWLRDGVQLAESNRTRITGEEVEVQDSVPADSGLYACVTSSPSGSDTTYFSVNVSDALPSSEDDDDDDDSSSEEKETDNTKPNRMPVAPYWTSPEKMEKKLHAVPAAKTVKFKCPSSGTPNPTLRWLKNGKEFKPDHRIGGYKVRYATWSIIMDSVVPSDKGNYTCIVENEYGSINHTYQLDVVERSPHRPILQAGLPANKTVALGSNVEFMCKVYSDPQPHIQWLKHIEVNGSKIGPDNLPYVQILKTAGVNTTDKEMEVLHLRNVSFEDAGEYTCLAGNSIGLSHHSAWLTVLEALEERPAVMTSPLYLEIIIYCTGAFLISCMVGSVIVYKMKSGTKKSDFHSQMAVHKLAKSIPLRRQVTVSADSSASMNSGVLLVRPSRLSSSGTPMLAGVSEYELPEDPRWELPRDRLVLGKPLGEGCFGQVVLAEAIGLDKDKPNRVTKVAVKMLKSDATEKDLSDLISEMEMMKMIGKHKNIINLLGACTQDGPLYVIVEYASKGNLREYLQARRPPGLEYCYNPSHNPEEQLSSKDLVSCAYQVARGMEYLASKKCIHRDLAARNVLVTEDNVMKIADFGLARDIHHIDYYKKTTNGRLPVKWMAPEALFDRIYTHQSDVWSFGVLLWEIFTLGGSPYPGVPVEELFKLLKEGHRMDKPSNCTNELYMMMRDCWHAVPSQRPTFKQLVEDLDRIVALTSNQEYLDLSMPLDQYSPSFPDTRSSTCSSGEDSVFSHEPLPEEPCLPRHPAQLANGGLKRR
Procedure: as §1, §2, §3

[4] = target: T2, human flg (fms-like gene) fibroblast …; assay: Scatchard analysis of [125I]aFGF saturation binding to flg overexpressing NIH 3T3 cells
Procedure: The scale on the Scatchard analysis is the same in each panel.
as §2, §4

[5] = target: T1, human bek (bacterially expressed …); assay: Scatchard analysis of [125I]aFGF saturation binding to bek overexpressing NIH 3T3 cells
Procedure: as §1, §2, §3

[6] = target: T2, human flg (fms-like gene) fibroblast …; assay: Scatchard analysis of saturation binding to flg overexpressing cells, kFGF against bFGF
Procedure: as §2, §4

[7] = target: T2, human flg (fms-like gene) fibroblast …; assay: Scatchard analysis of [125I]kFGF saturation binding to flg26 cells
[8] = target: T1, human bek (bacterially expressed …); assay: Scatchard analysis of [125I]kFGF saturation binding to bek13 cells

| Binder | background counts with 100 fold molar excess of either ligand, % of total cpm [1] [%] | Kd [2] [nM] | background counts with 100 fold molar excess of either ligand, % of total cpm [3] [%] | Kd [4] [nM] | Kd [5] [nM] | fold less avidity than bFGF [6] [fold] | Kd [7] [nM] | Kd [8] [nM] |
| --- | --- | --- | --- | --- | --- | --- | --- | --- |
| bovine derived acidic fibroblast growth factor (ligand, UniProt P03968 16-155, looked up, radioiodinated (125I) by Enzymobeads where used as labelled ligand, Purified from a bovine source; also called aFGF; acidic FGF) FNLPLGNYKKPKLLYCSNGGYFLRILPDGTVDGTKDRSDQHIQLQLCAESIGEVYIKSTETGQFLAMDTDGLLYGSQTPNEECLFLERLEENHYNTYISKKHAEKHWFVGLKKNGRSKLGPRTHFGQKAILFLPLPVSSD | < 10 | 0.04 to 0.1 | < 10 | 0.024 | 0.047 |  |  |  |
| human recombinant kFGF (ligand, UniProt P08620 31-206, looked up, radioiodinated (125I) by Enzymobeads, also called hst/kFGF) APTAPNGTLEAELERRWESLVALSLARLPVAAQPKEAAVQSGAGDYLLGIKRLRRLYCNVGIGFHLQALPDGRIGGAHADTRDSLLELSPVERGVVSIFGVASRFFVAMSSKGKLYGSPFFTDECTFKEILLPNNYNAYESYKYPGMFIALSKNGKTKKGNRVSPTMKVTHFLPRL |  |  |  |  |  | 4 | 0.32 | 0.08 |
